Test results published in patent US20040002582A1 (University of Texas, published 2004).
No end group written: not given here.

How the values were obtained:
POW-E-D3 = biological target: T1, POW-E-D3 (Powassan virus, UniProt Q04538 579-674)
T1 sequence: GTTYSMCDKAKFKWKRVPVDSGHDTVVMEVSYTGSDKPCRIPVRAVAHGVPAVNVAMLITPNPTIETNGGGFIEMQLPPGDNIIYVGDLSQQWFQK

LGT virus = biological target: T2, LGT virus (Langat virus, UniProt P29837 281-776); assay: cell-based or functional assay
T2 sequence: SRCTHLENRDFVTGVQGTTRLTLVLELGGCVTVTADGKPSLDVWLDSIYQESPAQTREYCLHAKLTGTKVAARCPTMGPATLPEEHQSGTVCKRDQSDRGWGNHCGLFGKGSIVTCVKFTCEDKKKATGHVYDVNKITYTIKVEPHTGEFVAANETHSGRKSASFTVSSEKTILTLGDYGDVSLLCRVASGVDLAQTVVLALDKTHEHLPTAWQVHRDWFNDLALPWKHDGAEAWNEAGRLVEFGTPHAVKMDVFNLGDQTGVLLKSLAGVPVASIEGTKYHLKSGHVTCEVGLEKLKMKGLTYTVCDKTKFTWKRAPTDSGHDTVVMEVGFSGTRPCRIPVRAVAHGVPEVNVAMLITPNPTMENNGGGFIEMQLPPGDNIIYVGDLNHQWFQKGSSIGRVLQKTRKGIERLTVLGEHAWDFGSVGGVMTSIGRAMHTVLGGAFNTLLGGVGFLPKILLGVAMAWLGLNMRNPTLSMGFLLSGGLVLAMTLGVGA

RCCHPQCKEGKKCR (designed binder, not fully specified; cysteine pairing not given here) [MP-100]
level of enrichment (ratio of enriched signal/library signal) (POW-E-D3): > 1.5 ratio of enriched signal/library signal | reduction of viral titer in Vero cells at 24 hpi (LGT virus): ~300 fold | reduction of viral titer in Vero cells at 36 hpi (LGT virus): ~100 fold
